Results: PMC4123461 (Experimental eye research, 2014)
Positions count from the first letter of the chain named. In names and notes the source's numbering stands.

T1: Best1-CFP (human, UniProt O76090 1-585)
T1 sequence (looked up): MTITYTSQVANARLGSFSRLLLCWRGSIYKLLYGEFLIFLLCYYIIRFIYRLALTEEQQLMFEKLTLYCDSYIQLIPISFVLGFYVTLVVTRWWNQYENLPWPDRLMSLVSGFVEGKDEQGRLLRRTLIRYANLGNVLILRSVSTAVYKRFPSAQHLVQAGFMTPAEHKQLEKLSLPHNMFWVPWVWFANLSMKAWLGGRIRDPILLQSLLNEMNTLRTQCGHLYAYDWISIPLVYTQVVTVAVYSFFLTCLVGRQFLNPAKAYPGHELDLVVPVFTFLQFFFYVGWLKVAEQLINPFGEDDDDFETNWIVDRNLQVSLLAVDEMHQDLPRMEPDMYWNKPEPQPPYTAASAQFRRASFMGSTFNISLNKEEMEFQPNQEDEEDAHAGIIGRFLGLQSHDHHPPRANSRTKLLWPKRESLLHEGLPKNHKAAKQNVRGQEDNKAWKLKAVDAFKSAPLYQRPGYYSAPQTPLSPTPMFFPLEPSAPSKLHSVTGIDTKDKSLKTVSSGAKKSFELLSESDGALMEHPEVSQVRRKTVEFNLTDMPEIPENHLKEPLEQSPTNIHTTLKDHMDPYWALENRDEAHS

B1: N179del Best1-YFP (natural protein, human, UniProt O76090 1-585, looked up)
chain: MTITYTSQVANARLGSFSRLLLCWRGSIYKLLYGEFLIFLLCYYIIRFIYRLALTEEQQLMFEKLTLYCDSYIQLIPISFVLGFYVTLVVTRWWNQYENLPWPDRLMSLVSGFVEGKDEQGRLLRRTLIRYANLGNVLILRSVSTAVYKRFPSAQHLVQAGFMTPAEHKQLEKLSLPHMFWVPWVWFANLSMKAWLGGRIRDPILLQSLLNEMNTLRTQCGHLYAYDWISIPLVYTQVVTVAVYSFFLTCLVGRQFLNPAKAYPGHELDLVVPVFTFLQFFFYVGWLKVAEQLINPFGEDDDDFETNWIVDRNLQVSLLAVDEMHQDLPRMEPDMYWNKPEPQPPYTAASAQFRRASFMGSTFNISLNKEEMEFQPNQEDEEDAHAGIIGRFLGLQSHDHHPPRANSRTKLLWPKRESLLHEGLPKNHKAAKQNVRGQEDNKAWKLKAVDAFKSAPLYQRPGYYSAPQTPLSPTPMFFPLEPSAPSKLHSVTGIDTKDKSLKTVSSGAKKSFELLSESDGALMEHPEVSQVRRKTVEFNLTDMPEIPENHLKEPLEQSPTNIHTTLKDHMDPYWALENRDEAHS
B2: WT Best1-YFP (natural protein, human, UniProt O76090 1-585, looked up)
chain: T1 sequence (looked up)
B3: A146L Best1-YFP (natural protein, human, UniProt O76090 1-585, looked up)
chain: T1 sequence (looked up) with A146L

These binders were tested against T1, Best1-CFP (assay: FRET or BRET).

FRET efficiency (%E)	Binder
12.4%	B1
13.6%	B2
14.8%	B3
